Experiment [1] deals with T1, FLNCd18–21 (Homo sapiens, UniProt Q14315).
T1 construct: WT, residues 1943 to 2408 from UniProt ID Q14315; 6xHis (C); EEF (C); made in house; host or cells: E. coli BL21(DE3) pLysS
T1 sequence (Q14315 1943-2408): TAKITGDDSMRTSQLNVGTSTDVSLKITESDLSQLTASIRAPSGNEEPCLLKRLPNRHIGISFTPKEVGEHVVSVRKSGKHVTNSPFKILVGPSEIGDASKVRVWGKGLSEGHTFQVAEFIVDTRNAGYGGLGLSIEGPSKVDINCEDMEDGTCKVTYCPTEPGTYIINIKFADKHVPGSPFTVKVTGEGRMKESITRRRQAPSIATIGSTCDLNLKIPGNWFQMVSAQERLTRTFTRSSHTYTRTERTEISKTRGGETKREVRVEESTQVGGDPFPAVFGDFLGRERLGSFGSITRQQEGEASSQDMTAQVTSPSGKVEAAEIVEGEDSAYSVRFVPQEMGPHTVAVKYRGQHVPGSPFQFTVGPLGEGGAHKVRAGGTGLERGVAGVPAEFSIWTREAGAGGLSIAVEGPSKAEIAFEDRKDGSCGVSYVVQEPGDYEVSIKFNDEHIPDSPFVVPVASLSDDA
Nature of the experiment: native MS peptide titration / complex detection with FLNCd18–21. The class given is binding. The following applies: for complex formation with FLNCd18–21: native MS, 200 mM ammonium acetate pH 6.9, peptides at 30 μM with 5 μM FLNCd18–21 (fig. S5D). From the text:
To isolate a stable HspB1-FLNCd18–21 complex and localize the binding within HspB1, we performed native ion mobility MS (IM-MS) experiments. […] Next, we mixed FLNCd18–21 with either HspB1_84–171 or peptides mimicking the PPR, because this region is phosphorylated in the MLP KO mice (Fig. 1C) and generally upon biomechanical stress ([26]) and becomes exposed thereafter. This strategy of using segments of HspB1 meant that we could avoid the problems of insolubilization of the full-length protein upon interaction with FLNC d18–21, as well as generally mitigate the confounding effects associated with the chaperone’s intrinsic polydispersity.
By quantifying the relative abundances of FLNCd18–21 and the peptide-bound species, we could determine binding affinities (Fig. 4B, lower panel, and fig. S4G). We obtained similar dissociation constants (KDs) of 130 ± 17 μM (HspB1_80–88) and 110 ± 10 μM (^PHspB1_80–88), indicating weak binding that is not affected substantially by phosphorylation. These findings contrast with the notable effect of HspB1 phosphomimicry on the interaction of full-length chaperone with the FLNC fragment (Fig. 1E). However, they can be rationalized by phosphorylation increasing the effective concentration of the binding region by modulating its conformational state (Fig. 2B and fig. S3) and leading to dimer (Fig. 2D) and oligomer disassembly ([22], [23]). To localize binding of HspB1_80–88 to domains with Ig folds or to the d20 insertion (which is possibly disordered), we prepared a modified FLNC construct lacking the 82 insertion residues (FLNCd18–21,ΔI).
The region of human FLNC comprising domains 18 to 21 (WT, residues 1943 to 2408 from UniProt ID Q14315; ∆I, residues 1943 to 2408 excluding 2163 to 2243) was encoded in a modified pET23a/EEF with C-terminal 6× His and EEF tags. The plasmid was transformed into E. coli BL21(DE3) pLysS cells (Agilent). To generate the Mβ construct, mutations E2136R and I2138E were introduced by site-directed mutagenesis. Cells were grown in LB at 37°C until an OD600 of 0.6 to 0.8 was reached. […] Purity was assessed by SDS-PAGE, and protein was stored in MS buffer at −80°C and used for experiments within 2 weeks of purification, after noticing in initial preparations some propensity for destabilization and aggregation following long-term storage. […]
Because HspB1 can form disulfide-linked dimers, experiments involving the ACD were performed in the presence of 10-fold molar excess DTT. […] Native MS and IM-MS data were recorded on a Synapt G1 mass spectrometer (Waters) modified for the transmission of intact noncovalent protein complexes. HspB1_77–171 variants were analyzed at a concentration of 10 μM in 200 mM ammonium acetate (pH 6.9). […]

For experiment [2], the system named is EEF-tagged FLNCd18–21. Nature of the experiment: coimmunoprecipitation of recombinant proteins. The class given is binding, human. Particulars: T7 antibody pull-down, 1 μg HspB1, 10 μg FLNCd18–21, 1 hour, room temperature. The method, then: (§1) Next, to validate the interaction in vitro, we expressed EEF-tagged human FLNC domains 18 to 21, encompassing the apparent HspB1 binding site ([16]), and full-length human HspB1 attached to a T7 tag. […] To investigate the effect of HspB1 phosphorylation on the interaction, we expressed WT human HspB1 and ^3PHspB1, a triple mutant containing phosphomimetic Ser to Asp substitutions at residues 15, 78, and 82. Upon incubation with FLNCd18–21 in vitro, we noticed that mixtures accumulated insoluble protein aggregates, while isolated proteins remained soluble. […] The results support an interaction between HspB1 and FLNCd18–21 to form large complexes that can be modulated by phosphorylation of HspB1.
T7-tagged purified recombinant HspB1 protein (1 μg) was added to 10 μg of EEF-tagged recombinant FLNCd18–21 in immunoprecipitation (IP) buffer [0.05% Triton X-100, 1% bovine serum albumin, protease inhibitors (Roche mini complete EDTA-free tablets) in phosphate-buffered saline (PBS)] and incubated for 1 hour, shaking at room temperature. This was followed by another 30-min incubation, shaking at room temperature after the addition of 0.5 μg of anti-T7 (69522, Novagen) or mouse IgG2b isotype (ab18457, Abcam) antibody. Next, 25 μl of protein G Sepharose resin (PC-G5, Generon) was added to each tube and incubated for 1 hour, shaking at room temperature. […]

The target in experiment [3] is T1, FLNCd18–21. Nature of the experiment: SDS-PAGE aggregation assay with FLNCd18–21. The format is biochemical. Particulars: 80 μM HspB1 + 40 μM FLNCd18–21 (2:1), 200 mM ammonium acetate pH 6.9, 500 μM DTT, 25°C, 90 min, densitometry. The method, then:
as §1
HspB1 (WT or 3P) was mixed with FLNCd18–21 at a 2:1 ratio (80 and 40 μM, respectively) in 200 mM ammonium acetate (pH 6.9) with 500 μM DTT and incubated at 25°C for 90 min. Aliquots were removed periodically and pelleted at 13,000g at 10°C for 10 min. Soluble fractions were diluted threefold with 200 mM ammonium acetate for analysis by SDS-PAGE, and pellets were resuspended in the same volume of 200 mM ammonium acetate and solubilized upon addition of the SDS-PAGE loading buffer. Gel bands were quantified by densitometry, using the raw intensities of FLNC and HspB1 bands to extract relative soluble and insoluble proportions at each time point.

Experiment [4] has as its target T2, human FLNC domains 18 to 21 (FLNC_(d18–21)), EEF-tagged (human, UniProt Q14315 1943-2408).
T2 construct: human filamin C, domains 18 to 21, residues 1943 to 2408 of UniProt Q14315; Modified pET23a/EEF vector; No cleavage of the tags is described; also called FLNC fragment; source: E. coli BL21(DE3) pLysS, purified (HisTrap, SEC Superdex 200); not shown: EEF, C-terminal, kept
T2 sequence (looked up): T1 sequence (Q14315 1943-2408)
The experiment is described as follows: native MS; native IM-MS of mixtures of FLNC_(d18–21) or FLNC_(d18–21,ΔI) with HspB1_(84–171), HspB1 peptides or an excess of control peptides; 200 mM ammonium acetate pH 6.9. Particulars: both partners purified.

For experiment [5], the target named is T2, human FLNC domains 18 to 21 …. Nature of the experiment: cell-based or functional assay.
The target is the same in experiment [6]. The experiment is described as follows: native MS; titration: FLNC_(d18–21) constant at 5 μM, peptide 5 to 160 μM, 200 mM ammonium acetate pH 6.9, acetonitrile vapor; fit with three equivalent binding sites (UniDec). The following applies: both partners purified.

Broadly, the stoichiometry N is a count of units in the complex or per binding partner.

No end group written: not given here. Some results are limits rather than exact numbers.

“HspB1_84–171: Human HspB1 α-crystallin domain (ACD)”: the “complex formation with FLNCd18–21” value is “Complexes were not observed” in experiment [1] and “No complex is observed” in experiment [1] (listed as HspB184-171). Take “HspB1_177–186: Peptide from human HspB1, C-terminal residues 177 to 186 (NEITIPVTFE; UniProt P04792 177-186, looked up, fragment) [reference compound]”: the “complex formation with FLNCd18–21” value in experiment [1] is listed as “No appreciable complex is detected”.

Take QLSSGVSEI [HspB1_80–88]: the Kd in experiment [1] (native MS titration, 5 μM FLNCd18–21, 5 to 160 μM peptide, 200 mM ammonium acetate pH 6.9, minimum three technical repeats, model of three equivalent binding sites, 500 bootstraps, apparent KD, read-out: dissociation constant KD (apparent)) was above 100 µM. As for “T7-tagged HspB1: Full-length WT HspB1 with an N-terminal T7 tag”, the “coimmunoprecipitation of FLNCd18–21” value in experiment [2] was “pulled down both HspB1 and FLNCd18–21”; in experiment [2] (listed as full-length human HspB1 attached to a T7 tag) it was “confirming a direct interaction”. Turning to WT human HspB1: Full-length WT HspB1, the “migration to pelleted fraction of mixture with FLNCd18–21” value in experiment [3] was “both proteins migrated to the pelleted fraction over time”. As for “^3PHspB1: Full-length human HspB1 with Ser to Asp phosphomimic substitutions at residues 15, 78 and 82”, in experiment [3], the “migration to pelleted fraction of mixture with FLNCd18–21” value is on record as “substantially increased by phosphomimicry”.

B1: ^PHspB1_(80–88) phosphorylated peptide (peptide, UniProt P04792 80-88, looked up)
peptide: QLSSGVSEI
modifications: also: phosphorylated, site not given here
notes: N-terminal acetylation open as for m13; also called phosphopeptide; source: synthetic peptide, bought: Biomatik
As for B1, the “stoichiometry N” value in experiment [4] was at most 2; in experiment [6] it was at most 3. The “activation required for the transition of unfolding intermediate B to final state C of FLNC_(d18–21) with one peptide bound (coulombically steered unfolding, IM-MS)” value in experiment [5] is around 75 V. For the same molecule, in experiment [6], the Kd came out at 110 ± 10 µM.

For the origin of these results see PMC6530996, “HspB1 phosphorylation regulates its intramolecular dynamics and mechanosensitive molecular chaperone interaction with filamin C” (Science Advances, 2019).
